Data published in the supplement of paper PMC12042874.
± gives the uncertainty stated by the source.

test: amyloid nucleation score (Sup35N fusion, yeast selection) (log enrichment); library NNK3; higher = more nucleation; inactive = no reads after selection
Outline: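 The nucleation score is the log enrichment of output over input reads, calculated with DiMSum and centred on the mode score of non-aggregating sequences. Sequences with under 100 input reads were excluded. Reads came from Illumina sequencing of plasmid inserts from psi-negative yeast expressing Sup35N fused to peptides of 20 random codons, induced 24 hours with 100 μM copper sulfate and grown 7 days at 30°C without adenine and uracil.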

| Substance | amyloid nucleation score |
| --- | --- |
| QDEPTMNVQ | inactive |
| QDLGECN | inactive |
| QESLDANFGLIVCYADLAED | inactive |
| QFESSSFRYVAVCSVCAFSI | 1.73 ± 0.099 |
| QFFSISIFTWVYLVENVADI | inactive |
| QFITLCLSSRSEVSVPFSLW | 0.997 ± 0.12 |
| QFKYHYYNLCWSTSVFSFKN | 0.837 ± 0.22 |
| QGFFGDNNAV | inactive |
| QGNSIWMYLGWVNKTML | inactive |
| QHALCSTAIRILLSV | inactive |
| QHYDDSNRFYNK | inactive |
| QICTQFRSG | inactive |
| QIFLVKPMSDFSCNSSRYTL | -0.423 ± 0.76 |
| QILFTQILLNSGEEGLSFVS | 0.479 ± 0.18 |
| QIVFIRPKNL | inactive |
| QKLSCPMFLMAIIVSKITKM | inactive |
| QKVLLWTSGPSSSRHRTEEF | inactive |
| QLCLKGSPIVVVRCLRHNKI | inactive |
| QLGFWKELSSSHS | inactive |
| QLLGNGP | inactive |
| QLLLKT | inactive |
| QLNGCHWCTMLSVVFCSRGV | 2.72 ± 0.069 |
| QLRGGVHMMHVCACGVDWWM | inactive |

| Substance | amyloid nucleation score |
| --- | --- |
| QLSFMEGANLRYCDFKPMIV | inactive |
| QLSVYIYLLIQLVISRKRNT | inactive |
| QLTNRKCR | -0.8 ± 2.5 |
| QMCTQLSIMI | inactive |
| QMIRVVVFNYDQFFR | 1.47 ± 0.084 |
| QMYKYNPNLYFFSVAVNLVV | 2.18 ± 0.073 |
| QNLDSMRGGIRSLLVIIRKS | inactive |
| QQCVTLQIYTMFKLRDYPA | 0.503 ± 0.24 |
| QQDTNDSGYYGRVGMLVSYW | inactive |
| QRGVLL | inactive |
| QRKFVVAVVSATILLFNTRE | inactive |
| QRLRHFAVYTMMYEAWASRC | inactive |
| QRYVLSCRALTGDTCWRKSG | inactive |
| QSNTLYIKFAAWSYFFSDPE | inactive |
| QSQWFGIVFMLNIMRSRDFR | 0.645 ± 0.12 |
| QSTIEKHDMPDRLFIVAAGS | inactive |
| QTISVYYFHVLWSEGCRMYA | inactive |
| QTSIPGFDTTTLRVPLAFFG | inactive |
| QTSRT | inactive |
| QVDFQLCH | inactive |
| QVGVWRNNGYEYYRGRNLRG | inactive |
| QVLTFVYFHDNVMVLGWEYS | 0.206 ± 0.78 |
| QVPYFYLSVFLFFSPCSINF | 1.74 ± 0.063 |

| Substance | amyloid nucleation score |
| --- | --- |
| QVRVVGHFKWYRIGTKVRDI | inactive |
| QVSLLYSVECMTFSFGNGDA | 1.6 ± 0.11 |
| QVYLVIV | inactive |
| QWEVR | inactive |
| QWSCGFMYSFKHLGGDCYNL | inactive |
| QWTQFIELLCYCYG | 1.87 ± 0.11 |
| QWWSLVTCQAMMN | inactive |
| QYELIGSKYVQRFSFQANFS | 2.07 ± 0.074 |
| QYLWPAKFFQTLYIVGCTTP | inactive |
| QYNPLDCCNVRLKLYGPLMV | inactive |
| QYQCADGKDNFIL | inactive |
| QYVSSTFHV | inactive |
| QYVWCGPFERYLASSVYGFS | inactive |
| RALTLADASGMRGINSGTMK | inactive |
| RAMCTALTSGTYRTCC | inactive |
| RANDEEFHR | inactive |
| RANLSDFYYSSSIDLKLPLT | inactive |
| RASFLSFCFSMAGFSLFDIK | inactive |
| RAVNKFAVNTTKGGSHSWHS | inactive |
| RAVRARFSKTTVFDWYAISG | inactive |
| RAWMCIQW | 0.382 ± 0.25 |
| RCFFNRMRTDVYSVDSKVSF | inactive |
| RCFSRRSCCGSVVWTVRVRH | inactive |

| Substance | amyloid nucleation score |
| --- | --- |
| RCFVPINGK | inactive |
| RCGHFLYEFL | inactive |
| RCKSGLNSMGRRFRYRIQQP | 0.809 ± 0.18 |
| RCLRKSSIFA | inactive |
| RCLSDCYVRNECTF | inactive |
| RCLYTCPYADFSEPNSNLRQ | inactive |
| RCNPGLVCLGCTFVSRNAYS | 1.67 ± 0.081 |
| RCQRVGI | inactive |
| RCSHDYGLWVVDWVVSKWGC | inactive |
| RCTHYMNRQMVLHVCMYVSY | inactive |
| RCVIALMLYVILGMNGWKAS | inactive |
| RDCICSRYIYGLRLSVLIWN | -0.44 ± 0.66 |
| RDKKNNRVYFGGYSLGTWSC | inactive |
| RDLWNGFSLGA | inactive |
| RDNVFCVDVDICILVVR | inactive |
| RDPWFLSMVVDLFGYLNWVM | 0.338 ± 0.18 |
| RDYFAYNCMVWMGTIQLYPG | 1.83 ± 0.056 |
| REGFVIIVLTWLMDSQYST | inactive |
| REGLRYLMVRSIIFSHIFCN | inactive |
| REHLLDHTRLYC | inactive |
| RELNQFSPRAENWWYSSHSV | inactive |
| RENSKFFLIRC | inactive |
| RENTNSFGVNCGTQFGRISL | 1.56 ± 0.099 |

| Substance | amyloid nucleation score |
| --- | --- |
| REYRIFLVPCFSISDRGGSW | inactive |
| RFFNFPGNLKLSHVDLIAIW | 0.214 ± 0.64 |
| RFGFS | inactive |
| RFGGVLVVFGEWNDVVREAV | inactive |
| RFIISCQRYVETTT | inactive |
| RFIVHIYNMN | 2.59 ± 0.059 |
| RFKTF | inactive |
| RFLDRTLIGYVCGKRRSPSS | inactive |
| RFNCHRMCEHGDTLDMSYN | inactive |
| RFNMSFYQSYITSHCLVR | inactive |
| RFQFEGREFCLGMLDFNSWI | inactive |
| RFRKG | inactive |
| RFRVLTYIISYSFSFCHHVW | 0.356 ± 0.27 |
| RFSRTDGRLWSCKTCQ | inactive |
| RFVGVATTSFLTVTFGLVCE | inactive |
| RFYLDLEQQHLEIVGESR | inactive |
| RFYLIKPAI | inactive |
| RGAVCVNFTSRWSWGIGEHH | 1.33 ± 0.11 |
| RGCCKRPDGSKLVFIQMLIS | inactive |
| RGDSRFP | 0.08 ± 0.88 |
| RGDVLRFTWCSEPGCQRRTT | inactive |
| RGFICIGTLYLLAPVFCARS | 2.85 ± 0.062 |
| RGILFLV | inactive |

| Substance | amyloid nucleation score |
| --- | --- |
| RGKSLFLINTDM | -0.148 ± 0.7 |
| RGLLEANMLGSSGDPSVNSG | inactive |
| RGPSAPNFWE | inactive |
| RGRRSCRARRYTTGAFHELL | inactive |
| RGSDEDGYLG | 0.003 ± 0.7 |
| RHDVSSGSYGGRSGAGSPAQ | inactive |
| RHGKIAAS | inactive |
| RHISRRRLREVGVCRLKVML | inactive |
| RHKWLFMWGCFHFNKCASH | inactive |
| RHLIAFVVNNSFLVDYDSIS | inactive |
| RHRASGLFP | inactive |
| RHWIWLMQWKD | 1.11 ± 0.14 |
| RICMRLVNMTLMCQISGVLG | inactive |
| RICRYGAIDLMGVP | inactive |
| RIDIGY | 0.612 ± 0.17 |
| RIETYCVRGILAIE | inactive |
| RIFFGISVIQFLIRSYSVHR | inactive |
| RIHSYAYPCQFFRLDYGGGQ | 0.703 ± 0.13 |
| RILVGLNCS | inactive |
| RISRNGCGCGILYVIIRN | inactive |
| RIVGEYSLKGCEVNVSWVKS | inactive |
| RIVMPLSVSFMPQVKHPMYR | inactive |
| RIYSDGRSSFSRQLVWVCSR | inactive |

| Substance | amyloid nucleation score |
| --- | --- |
| RKDVSCSPLLNCETVSVQ | inactive |
| RKIETLWVYIYRLFRLGEQV | inactive |
| RKKRY | inactive |
| RKLFKKTFYLAPRL | inactive |
| RKQRNWCTTPVVRFRVYGYA | inactive |
| RKRAGVMGTLSN | inactive |
| RKVIPCH | inactive |
| RLATHCKHNASCQQSFYRE | inactive |
| RLDPLVDFANDLMTSYSR | inactive |
| RLEFKESRMGLLVLGDN | inactive |
| RLFKSGEFDFCYIRGHCCSV | inactive |
| RLFSWNIYLWLL | 1.48 ± 0.081 |
| RLFYTRIDSTCIWLVLYAEK | inactive |
| RLGNTGMCV | inactive |
| RLGTM | inactive |
| RLGVVASPLHSTCIGNLLHG | inactive |
| RLIYLWVPYCNMCRCGLLCK | inactive |
| RLLFFLDRKDLDAGGVFSKG | inactive |
| RLLFSATFSRNFISCTKSSS | inactive |
| RLNCNYTFLLNTIHSPWCCC | inactive |
| RLNIYLWGVGLTRDVIYPPS | 1.66 ± 0.1 |
| RLNWASVRRFTLIGRSVRRS | inactive |
| RLPCPCNSVACVRTWISRCS | inactive |
